Measurements reported in publication doi:10.1101/2020.12.29.424711 (bioRxiv, 2020).

B1: ION_300 Fab (Fab, V domains shown)
VH: QVQLVQSGAEVKKPGESLKISCKGSGYSFTSYWIGWVRQMPGKGLEWMGIIYPGDSDTRYSPSFQGQVTISADKSISTAYLQWSSLKASDTAMYYCARHPSPYYYGSGSYSGGFDYWGQGTLVTVSS
VL: DIVMTQSPGTLSLSPGERATLSCRASQSVSSSYLAWYQQKPGQAPRLLIYGASTRATGIPARFSGSGSGTEFTLTISSLQSEDFAVYYCQQYDNWPLMHTFGQGTKLEIK
B2: ION_300 IgG1 (antibody, V domains shown)
VH: B1 VH
VL: B1 VL
B3: ION_360 Fab (Fab, V domains shown)
VH: EVQLVQSGGGLVKPGGSLRLSCAASGITVSSNYMSWVRQAPGKGLEWVSVIYSGGSTYYADSVKGRFTISRDNSKNTLYLQMNSLRAEDTAVYYCARGEGGSIVGVTSDYWGQGTLVTVSS
VL: DIQMTQSPSSLSASVGDRVTITCRASQSISRYLNWYQQKPGKAPKLLIYAASSLQSGVPSRFSGSGSETEFTLTISSLHPDDFATYYCQQSYSTLPYTFGQGTKVEIK

Columns and labels:
[1] = biological target: SARS-CoV-2 receptor binding domain (RBD), as crystallised (SARS-CoV-2, UniProt P0DTC2); test: crystal structure
[2] = biological target: SARS-CoV-2 RBD, as used in Octet epitope binning and as SPR analyte (SARS-CoV-2, UniProt P0DTC2); test: BLI

| Binder | binding result [1] | binding result [2] |
| --- | --- | --- |
| B1 | binds |  |
| B2 |  | binds |
| B3 | binds |  |
